Reference: patent publication US20210315933A1 (TCR2 THERAPEUTICS, published 2021)
Read-outs that look alike come from different tables or passages of the source.

T1: recombinant human IL13Rα2 fused to an Fc domain of human IgG1 (hIL13Rα2-Fc) (human, UniProt Q14627 27-343, limits assumed)
T1 construct: Bought construct (R&D Systems); The Fc can be removed by Factor Xa, so a Factor Xa site lies between the parts; not shown: Fc domain of human IgG1
T1 sequence (looked up): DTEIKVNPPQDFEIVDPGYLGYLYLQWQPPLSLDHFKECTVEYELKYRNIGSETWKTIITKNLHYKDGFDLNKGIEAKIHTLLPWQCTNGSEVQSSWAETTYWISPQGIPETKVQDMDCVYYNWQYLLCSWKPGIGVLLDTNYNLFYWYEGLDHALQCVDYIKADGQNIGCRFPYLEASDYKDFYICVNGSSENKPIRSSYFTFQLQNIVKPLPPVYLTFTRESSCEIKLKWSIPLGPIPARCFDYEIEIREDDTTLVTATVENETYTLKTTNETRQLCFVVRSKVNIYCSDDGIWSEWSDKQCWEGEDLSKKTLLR

T2: human IL13Rα2 on cells (human, UniProt Q14627 27-380)
T2 construct: whole, on cells; also called hIL13Rα2
T2 sequence (looked up): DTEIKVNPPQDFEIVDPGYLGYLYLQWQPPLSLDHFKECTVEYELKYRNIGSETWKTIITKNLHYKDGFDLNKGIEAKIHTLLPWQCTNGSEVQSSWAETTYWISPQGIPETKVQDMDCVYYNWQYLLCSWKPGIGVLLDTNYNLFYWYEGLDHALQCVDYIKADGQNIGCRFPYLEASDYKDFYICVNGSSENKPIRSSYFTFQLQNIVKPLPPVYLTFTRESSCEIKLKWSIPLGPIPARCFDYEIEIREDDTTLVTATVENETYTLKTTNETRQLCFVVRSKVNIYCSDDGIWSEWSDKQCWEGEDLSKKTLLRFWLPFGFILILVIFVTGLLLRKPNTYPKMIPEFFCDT

T3: Human MUC16 polypeptide (MUC16 ectodomain peptide) (human)
T3 construct: Analyte of the Octet titration and antigen of the binning assay; also called MUC16 peptide; MUC16^ecto peptide
T3 peptide: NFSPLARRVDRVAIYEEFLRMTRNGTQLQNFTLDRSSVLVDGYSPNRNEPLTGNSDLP


Columns and labels:
[1] = target: T1, recombinant human IL13Rα2 fused to an …; assay: Octet KD relative to clone 1 parental
Description: (§1) Two clones were chosen for humanization. […] Each humanized nanobody was analyzed by Octet at 500 nM on an Ni-NTA sensor, with three fold dilutions of antigen (IL13Rα2-Fc) at 125 nM, 41.66 nM, and 13.86 nM. A summary of the octed measurements for each of the humanized variants depicted in FIG. 1 is shown in Table 1 (clone 1) and Table 2 (clone 2).

human IL13Rα2 on cells [2] = target: T2, human IL13Rα2 on cells; assay: flow cytometry; cell line not stated
[3] = target: T1, recombinant human IL13Rα2 fused to an …; assay: Octet (BLI); nanobody on Ni-NTA sensor, IL13Rα2-Fc in solution
Description: as §1

human IL13Rα2 on cells [4] = target: T2, human IL13Rα2 on cells; assay: flow cytometry; cell line not stated; remark: listed apart in the source
[5] = target: T1, recombinant human IL13Rα2 fused to an …; assay: Octet KD relative to clone 2 parental
Description: as §1

[6] = target: T3, Human MUC16 polypeptide (MUC16 …); assay: Octet (BLI), NTA biosensor; His-tagged sdAb on sensor, MUC16 peptide titrated; 1:1 global fit
Description: FIGS. 5A-C show titration and measurement of binding affinity of parental (llama) and humanized anti-MUC16 single chain antibody (VHH). FIG. 5A is a diagram illustrating the experimental procedure by which the VHH binders produced in Example 5 are screened using an NTA biosensor (nickel coated surface). The His-tagged MUC16 sdAbs (3.25 μg/ml) are bound to the biosensor, and the MUC16 peptide is added at concentrations of 0, 1.56, 6.25, 25, 50, 100 or 200 nM. Buffer: 1× Octet; 1× Corning® Cellgro® PBS (cat. 21-040-CM) containing 0.02% Tween® 20 at 30° C. Sensors: Pall Forte Bio Dip & Read (cat. 18-5102). FIG. 5B (clone R3Mu4 parental and humanized variants) and FIG. 5C (clone R3Mu29 parental and humanized variants) show binding kinetics of the sdAbs to the MUC16 target (see also Table 1). These curves were used to derive binding affinity constant for each protein and to assess the effect of humanization on antigen binding.
The VHH binders produced in Example 5 are screened using an NTA biosensor (nickel column, see FIG. 5A for a drawing outlining the method). The His-tagged MUC16 sdAbs (3.25 μg/ml) are bound to the column, and then the MUC16 peptide is passed through the column at concentrations of 200, 100, 50, 25, 6.25, 1.56, and 0 nM. Buffer: 1× Corning® Cellgro® PBS pH 7.4 (cat. 21-040-CM) containing 0.02% Tween® 20) at 30° C. Sensors: Pall Forte Bio Dip & Read (cat. 18-5102).

Binder	KD fold difference [1] [fold]	Flow Cytometry MFI (human IL13Rα2 on cells [2]) [MFI]	Kd [3] [nM]	Flow Cytometry MFI (human IL13Rα2 on cells [4]) [MFI]	KD fold difference [5] [fold]	Kd [6] [nM]
Llama single domain anti-IL13Rα2 Clone 2 (LSD2) (VHH, Captured on a Ni-NTA sensor, so a His tag is implied; the tag is not described; also called 2-parental; clone 2 parental) VHH: DVQLVESGGGLVQPGGSLRLSCEASGFASDDYIIGWFRQAPGKEREGVSCISSRYANTVYTDSVKGRFRISRGTAKNTVYLQMSALKPEDTAVYYCAMDSRRVTCPEISTMHRNFDSWGQGTQVTVSS	–	–	810	3650	1	–
anti-IL13Rα2 Clone 2 humanized variant 2-h4 (VHH) VHH: EVQLVESGGGLVQPGGSLRLSCAASGFASDDYIMGWFRQAPGKGLEGVSCISSRYANTVYADSVKGRFTISRGNAKNTVYLQMNSLRPEDTAVYYCAMDSRRVTCPEISTMHRNFDSWGQGTQVTVSS	–	–	960	3060	1.2	–
anti-IL13Rα2 Clone 2 humanized variant 2-h1 (VHH) VHH: EVQLVESGGGLVQPGGSLRLSCAASGFASDDYIMGWFRQAPGKGLEGVSCISSRYANTVYADSVKGRFRISRGNAKNTVYLQMSALRPEDTAVYYCAMDSRRVTCPEISTMHRNFDSWGQGTQVTVSS	–	–	930	–	1.1	–
single domain anti-MUC16 binder R3MU4 (VHH, also called Parental R3Mu4; parental (llama) R3Mu4; not shown: C-terminal tags (pMECS GG: HA tag and His6 tag; His-tagged in the Octet assay)) VHH: QVQLQESGGGLVQAGGSLRLSCAASGRTVSSLFMGWFRQAPGKERELVAAISRYSLYTYYADSVKGRFTISADNAKNAVYLQMNSLKPEDTAVYYCASKLEYTSNDYDSWGQGTQVTVSS	–	–	–	–	–	10.2
R3MU29h13 (96.7% human) (VHH, also called R3Mu29_h13#11; not shown: His tag (His-tagged MUC16 sdAbs)) VHH: EVQLVESGGGLVQPGGSLRLSCAASGRAVSSLFMGWFRQAPGKGLELVSAISRYSLYTYYADSVKGRFTISRDNAKNTLYLQMNSLRPEDTAVYYCASKLEYTSNDYDSWGQGTLVTVSS	–	–	–	–	–	8.3
R3MU4h12 (97.8% human) (VHH, also called R3Mu4 h12#2; not shown: His tag (His-tagged MUC16 sdAbs)) VHH: EVQLVESGGGLVQPGGSLRLSCAASGRTVSSLFMGWFRQAPGKGLEWVSAISRYSLYTYYADSVKGRFTISRDNAKNTLYLQMNSLRPEDTAVYYCASKLEYTSNDYDSWGQGTLVTVSS	–	–	–	–	–	94.6
R3MU4h11 (96.7% human) (VHH, also called R3Mu4 h11#2; not shown: His tag (His-tagged MUC16 sdAbs)) VHH: EVQLVESGGGLVQPGGSLRLSCAASGRTVSSLFMGWFRQAPGKGLELVSAISRYSLYTYYADSVKGRFTISRDNAKNTLYLQMNSLRPEDTAVYYCASKLEYTSNDYDSWGQGTLVTVSS	–	–	–	–	–	10.9
anti-IL13Rα2 Clone 2 humanized variant 2-h6 (VHH) VHH: EVQLVESGGGLVQPGGSLRLSCAASGFASDDYIMGWFRQAPGKGLEGVSCISSRYANTVYADSVKGRFTISRDNAKNTLYLQMNSLRPEDTAVYYCAMDSRRVTCPEISTMHRNFDSWGQGTQVTVSS	–	–	1130	2870	1.4	–
Humanized Llama single domain anti-IL13Rα2 Clone 2-h10 (H2-LSD2) (VHH, Captured on a Ni-NTA sensor, so a His tag is implied; the tag is not described) VHH: EVQLVESGGGLVQPGGSLRLSCAASGFASDDYIMGWVRQAPGKGLEWVSCISSRYANTYYADSVKGRFTISRDNAKNTLYLQMNSLRPEDTAVYYCAMDSRRVTCPEISTMHRNFDSWGQGTLVTVSS	–	–	3310	1120	4.1	–
Humanized Llama Single domain anti-IL13Rα2 Clone 1-h8 (H1-LSD1) (VHH, Captured on a Ni-NTA sensor, so a His tag is implied; the tag is not described) VHH: EVQLVESGGGLVQPGGSLRLSCAASGFTSDYYIMGWFRQAPGKGLEGVSCISSKYANTYYADSVKGRFTISRDNAKNTLYLQMNSLRPEDTAVYYCAADTRRYTCPDIATMHRNFDSWGQGTLVTVSS	3.1	1240	1.94	–	–	–
Humanized Llama single domain anti-IL13Rα2 Clone 1-h10 (H2-LSD1) (VHH, Captured on a Ni-NTA sensor, so a His tag is implied; the tag is not described) VHH: EVQLVESGGGLVQPGGSLRLSCAASGFTSDYYIMGWVRQAPGKGLEWVSCISSKYANTYYADSVKGRFTISRDNAKNTLYLQMNSLRPEDTAVYYCAADTRRYTCPDIATMHRNFDSWGQGTLVTVSS	2.3	639	1.46	–	–	–
Humanized Llama Single domain anti-IL13Rα2 Clone 2-h8 (H1-LSD2) (VHH, Captured on a Ni-NTA sensor, so a His tag is implied; the tag is not described) VHH: EVQLVESGGGLVQPGGSLRLSCAASGFASDDYIMGWFRQAPGKGLEGVSCISSRYANTYYADSVKGRFTISRDNAKNTLYLQMNSLRPEDTAVYYCAMDSRRVTCPEISTMHRNFDSWGQGTLVTVSS	–	–	950	2020	1.2	–
R3MU29h15 (98.9% human) (VHH, also called R3Mu29_h15#16; not shown: His tag (His-tagged MUC16 sdAbs)) VHH: EVQLVESGGGLVQPGGSLRLSCAASGRAVSSLFMGWVRQAPGKGLEWVSAISRYSLYTYYADSVKGRFTISRDNAKNTLYLQMNSLRPEDTAVYYCASKLEYTSNDYDSWGQGTLVTVSS	–	–	–	–	–	22.9
R3MU29h14 (97.8% human) (VHH, also called R3Mu29_h14#13; not shown: His tag (His-tagged MUC16 sdAbs)) VHH: EVQLVESGGGLVQPGGSLRLSCAASGRAVSSLFMGWFRQAPGKGLEWVSAISRYSLYTYYADSVKGRFTISRDNAKNTLYLQMNSLRPEDTAVYYCASKLEYTSNDYDSWGQGTLVTVSS	–	–	–	–	–	36.4

Further lines, results first:

KD fold difference [1] [fold]	Flow Cytometry MFI (human IL13Rα2 on cells [2]) [MFI]	Kd [3] [nM]	Flow Cytometry MFI (human IL13Rα2 on cells [4]) [MFI]	KD fold difference [5] [fold]	Kd [6] [nM]	Binder
1	2270	0.63	–	–	–	Llama single domain anti-IL13Rα2 Clone 1 (LSD1) (VHH, Captured on a Ni-NTA sensor in the Octet assay, so a His tag is implied; the tag is not described for this construct; also called parental; clone 1 parental) VHH: DVQLVESGGGLVQPGGSLRLSCAASGFTSDYYIIGWFRQAPGKEREGVSCISSKYANTNYADSVKGRFTQSRGAAKNTVYLQMNALKPEDTAVYYCAADTRRYTCPDIATMHRNFDSWGQGTQVTVSS
–	–	910	3070	1.1	–	anti-IL13Rα2 Clone 2 humanized variant 2-h3 (VHH) VHH: EVQLVESGGGLVQPGGSLRLSCAASGFASDDYIMGWFRQAPGKGLEGVSCISSRYANTVYADSVKGRFTISRGNAKNTVYLQMSSLRPEDTAVYYCAMDSRRVTCPEISTMHRNFDSWGQGTQVTVSS
–	–	870	1450	1.1	–	anti-IL13Rα2 Clone 2 humanized variant 2-h5 (VHH) VHH: EVQLVESGGGLVQPGGSLRLSCAASGFASDDYIMGWFRQAPGKGLEGVSCISSRYANTVYADSVKGRFTISRDNAKNTVYLQMNSLRPEDTAVYYCAMDSRRVTCPEISTMHRNFDSWGQGTQVTVSS
–	–	–	–	–	6.3	Single domain anti-MUC16 R3MU29 (VHH, also called Parental R3Mu29; parental (llama) R3Mu29; not shown: C-terminal tags (pMECS GG: HA tag and His6 tag; His-tagged in the Octet assay)) VHH: QVQLQESGGGLVQAGDSLRLSCAASGRAVSSLFMGWFRRAPGKERELVAAISRYSLYTYYADSVKGRFTISADNAKNAVYLQMNSLKPEDTAVYYCASKLEYTSNDYDSWGQGTQVTVSS
3	842	1.91	–	–	–	anti-IL13Rα2 Clone 1 humanized variant 1-h9 (VHH) VHH: EVQLVESGGGLVQPGGSLRLSCAASGFTSDYYIMGWFRQAPGKGLEWVSCISSKYANTYYADSVKGRFTISRDNAKNTLYLQMNSLRPEDTAVYYCAADTRRYTCPDIATMHRNFDSWGQGTLVTVSS
–	–	–	–	–	36.2	R3MU4h13 (98.9% human) (VHH, not shown: His tag (His-tagged MUC16 sdAbs)) VHH: EVQLVESGGGLVQPGGSLRLSCAASGRTVSSLFMGWVRQAPGKGLEWVSAISRYSLYTYYADSVKGRFTISRDNAKNTLYLQMNSLRPEDTAVYYCASKLEYTSNDYDSWGQGTLVTVSS
